US20240024520A1, “AUTONOMOUS KNOB DOMAIN PEPTIDES” (UCB BIOPHARMA SRL, priority 2020, published 2024)
Bridge positions count the residues as written; N and C are the ends. Peptide text beside a SMILES is read from it.

What follows are molecules tested against T1, C5 (Homo sapiens, UniProt P01031) (assay: Monoclonal phage screening ELISA, human C5). Conditions: knob domain of the anti-C5 ultralong CDR-H3.
Format: binding
Procedure: For the C5 libraries, a single round of enrichment was performed with either human or rat C5 protein. […] Phage were blocked for 30 minutes. Biotinylated antigen was added to the blocked phage at a concentration of 100 nM and incubated at room temperature with mixing.
Colonies were picked into a 96-well culture plate containing selective medium 2TY supplemented with 1% Glucose and 100 μg/ml Carbenicillin and was incubated at 37° C. until wells reached mid-log phase of growth prior to addition of M13K07 helper phage. The block was incubated without shaking for 1 hour to achieve infection and phage production using continued culture in selective media supplemented with 50 μg/ml Kanamycin and 100 μg/ml Carbenicillin.
Binding to antigen was assessed by monoclonal phage ELISA, 96-well flat bottom Nunc MaxiSorp plates (Thermofisher) were coated with a 2.5 μg/ml solution of human, mouse, or rat serum albumin, human C5 or mouse C5 diluted with PBS, and left overnight at 4° C. Negative control plate and Anti-myc tag plate were also prepared.
Monoclonal phage rescue supernatants were blocked with an equal volume of a 2% milk (w/v) in PBS, for serum albumin proteins, or 2% BSA and 2% milk (w/v) in PBS solution. The coating solution was removed from coated Nunc plates and each plate was blocked with 1% BSA in PBS (for C5 libraries) or 1% milk powder (for albumin library). Both phage and Nunc plates were blocked for 1 hour at room temperature. Nunc plates were washed using a 96-well microplate washer (BioTek) with a PBS solution contain 0.1% Tween20 (Sigma Aldrich). 100 of blocked phage solution was added to each well of Nunc MaxiSorp plate and left shaking at room temperature for 1 hour. Plates were washed and dried as previously described. 100 of an Anti-M13-Horse radish peroxidase conjugated antibody (GE Healthcare) diluted (1:5,000) in a 1% BSA or milk solution was added to each well and left shaking at room temperature for 1 hour. Plates were washed again and 50 μL of TMB solution (Merck Millipore) was added to each well. Plates were left shaking for 10 minutes. Absorbance was measured at 630 nm and 490 nm. Binding signals were obtained where Absorbance at 630 nm was >3-times the signal upon irrelevant antigen.
By monoclonal phage ELISA the following ultralong CDR-H3 sequences were identified as binders (OD>0.2 AU): […]

T1 sequence (P01031 19-1676): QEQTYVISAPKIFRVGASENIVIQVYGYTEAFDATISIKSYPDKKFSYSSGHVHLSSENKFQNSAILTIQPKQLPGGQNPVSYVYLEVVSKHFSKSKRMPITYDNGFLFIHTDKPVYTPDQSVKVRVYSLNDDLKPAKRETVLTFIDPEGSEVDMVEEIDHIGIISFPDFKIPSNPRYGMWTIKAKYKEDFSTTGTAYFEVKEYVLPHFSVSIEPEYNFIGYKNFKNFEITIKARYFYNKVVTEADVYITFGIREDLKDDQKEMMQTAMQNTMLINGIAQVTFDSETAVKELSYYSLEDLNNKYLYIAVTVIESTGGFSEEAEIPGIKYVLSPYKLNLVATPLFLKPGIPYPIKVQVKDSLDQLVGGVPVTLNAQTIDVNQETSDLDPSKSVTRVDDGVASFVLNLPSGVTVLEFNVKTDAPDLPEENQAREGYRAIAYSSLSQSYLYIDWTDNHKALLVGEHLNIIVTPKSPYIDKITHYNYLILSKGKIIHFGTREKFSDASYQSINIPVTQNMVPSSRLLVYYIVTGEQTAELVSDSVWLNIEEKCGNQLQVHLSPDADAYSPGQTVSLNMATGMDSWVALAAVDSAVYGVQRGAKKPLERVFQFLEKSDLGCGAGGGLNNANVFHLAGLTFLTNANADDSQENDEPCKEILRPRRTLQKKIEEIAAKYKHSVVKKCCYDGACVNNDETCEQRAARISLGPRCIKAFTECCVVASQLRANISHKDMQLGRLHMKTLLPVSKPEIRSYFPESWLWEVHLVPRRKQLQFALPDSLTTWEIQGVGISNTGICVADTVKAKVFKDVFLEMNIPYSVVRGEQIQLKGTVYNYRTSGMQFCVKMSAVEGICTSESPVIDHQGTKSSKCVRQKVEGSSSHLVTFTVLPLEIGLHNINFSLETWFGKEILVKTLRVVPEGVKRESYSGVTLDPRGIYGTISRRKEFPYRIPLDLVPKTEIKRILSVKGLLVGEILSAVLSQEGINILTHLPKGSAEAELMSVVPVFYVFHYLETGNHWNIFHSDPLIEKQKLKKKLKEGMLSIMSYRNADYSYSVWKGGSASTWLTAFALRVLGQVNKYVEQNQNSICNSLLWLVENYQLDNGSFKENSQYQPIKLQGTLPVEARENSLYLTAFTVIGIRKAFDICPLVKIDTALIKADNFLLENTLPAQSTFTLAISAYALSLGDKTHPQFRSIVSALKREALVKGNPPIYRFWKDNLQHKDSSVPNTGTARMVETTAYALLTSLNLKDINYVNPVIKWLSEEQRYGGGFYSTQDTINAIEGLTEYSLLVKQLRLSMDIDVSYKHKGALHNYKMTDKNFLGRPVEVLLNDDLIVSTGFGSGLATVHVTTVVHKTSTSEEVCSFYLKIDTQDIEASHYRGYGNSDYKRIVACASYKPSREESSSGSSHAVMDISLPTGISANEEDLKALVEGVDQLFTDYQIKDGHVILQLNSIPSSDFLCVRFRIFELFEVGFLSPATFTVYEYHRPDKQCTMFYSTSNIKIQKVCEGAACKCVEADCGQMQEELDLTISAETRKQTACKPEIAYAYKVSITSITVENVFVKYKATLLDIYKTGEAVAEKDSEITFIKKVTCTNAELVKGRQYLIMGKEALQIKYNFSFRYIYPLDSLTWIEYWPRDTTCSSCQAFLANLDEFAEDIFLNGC

Molecule	Specificity
601 (NCPDGYEYNGFCTPDGGCSRVSNWGWDRSCISPT; Anti-C5 ultralong CDR-H3 knob domain) [compound 601]	Human
579 (HCSPGSDCSWGCYDRDDRRVDGAGADSGLGSTST; Anti-C5 ultralong CDR-H3 knob domain) [compound 579]	Human
581 (HCSPGSDCSWGCYDKDDRRVDGAGVASGLGST; Anti-C5 ultralong CDR-H3 knob domain) [compound 581]	Human
609 (SGCPPGYKSGVDCSPGSEYKWGCYAVDGRRYGGYGADSGVGST; Anti-C5 ultralong CDR-H3 knob domain) [compound 609]	Human
583 (SCPDGYHFIEPCHSGLCWREGACNGDGICANGLGRCRTVSETST; Anti-C5 ultralong CDR-H3 knob domain) [compound 583]	Human
589 (GCPTGTVAGVHCSPGSDCSWGCYDADDRRVDGYGADSGVGSP; Anti-C5 ultralong CDR-H3 knob domain) [compound 589]	Human
602 (SCPDGYCDCNGCGYGNGCSRGGCFDFRLYSGYSADIVVSTT; Anti-C5 ultralong CDR-H3 knob domain) [compound 602]	Human
587 (GCPPGTVAGVHCSPGSDCSWGCYDRDDRRVDGAGADSGLGSTST; Anti-C5 ultralong CDR-H3 knob domain) [compound 587]	Human
591 (NCPDGYGYQRHCTVGEDCTDSCCDRYGLCTTSTET; Anti-C5 ultralong CDR-H3 knob domain) [compound 591]	Human
605 (GCPPGYKSGVDCSPGSECKWGCYAVDGRRYGGYGADSGVGST; Anti-C5 ultralong CDR-H3 knob domain) [compound 605]	Human
588 (SCPDGYHFIEPCHSGLCWREGACNGDGICANGLGRCRTVSETST; Anti-C5 ultralong CDR-H3 knob domain) [compound 588]	Human

What follows are molecules tested against T1, C5 (assay: Biacore multi-cycle kinetics on human C5). Conditions: measured Rmax divided by theoretical Rmax, n = 3 experiments.
Format: binding
Procedure: Binding of knob domain peptides to human C5 was measured by SPR, using a multi-cycle kinetics method as follows:
Kinetics were measured using a Biacore 8K (GE Healthcare) with a CM5 chip, which was prepared as follows: EDC/NHS was mixed at 1:1 ratio (flow rate, 10 μL/min; contact time, 30 seconds), human C5 protein at 1 μg/mL in pH 4.5 sodium-acetate buffer, were injected over flow cell one only (flow rate, 10 μL/min; contact time, 60 seconds). Final immobilization levels in the range of 2000-3000 response units (RU) were obtained, to yield theoretical Rmax values of ˜50-60 RU. Serial dilutions of peptide were prepared in HBS-EP buffer and injected (flow rate, 30 μL/min; contact time, 240 seconds; dissociation time, 6000 seconds). After each injection, the surface was regenerated with two sequential injections of 2M MgCl2 (flow rate, […]; contact time, 30 seconds). Binding to the reference surface was subtracted, and the data were fitted to a single site binding model, using Biacore evaluation software.

Molecule	mean stoichiometric ratio
CC[C@H](C)[C@@H]1NC(=O)[C@H](C)NC(=O)[C@H](C(C)C)NC(=O)CNC(=O)[C@@H]2CSSC[C@@H](C(=O)NCC(=O)N[C@@H](Cc3c[nH]cn3)C(=O)N[C@@H](Cc3ccccc3)C(=O)N[C@@H](CC(C)C)C(=O)N[C@@H](CC(N)=O)C(=O)N[C@@H](CO)C(=O)NCC(=O)N3CCC[C@H]3C(=O)N[C@@H](CC(N)=O)C(=O)N[C@H](C(=O)N[C@@H](CO)C(=O)N3CCC[C@H]3C(=O)N[C@@H](Cc3ccc(O)cc3)C(=O)N[C@H](C(=O)N[C@@H](CO)C(=O)N[C@H](C(=O)O)[C@@H](C)O)C(C)C)[C@@H](C)CC)NC(=O)CNC(=O)[C@H](C)NC(=O)[C@H](CCCNC(=N)N)NC(=O)CNC(=O)[C@H](CSSC[C@H](NC(=O)[C@@H](N)[C@@H](C)O)C(=O)N3CCC[C@H]3C(=O)N[C@@H](CCC(=O)O)C(=O)NCC(=O)N[C@@H](Cc3c[nH]c4ccccc34)C(=O)N[C@@H](CO)C(=O)N[C@@H](CCC(=O)O)C(=O)N2)NC(=O)[C@H](CCC(=O)O)NC(=O)[C@H](Cc2ccc(O)cc2)NC(=O)CNC(=O)[C@H](Cc2ccc(O)cc2)NC1=O [K92chemFE W21A] (H-TCPEGWSECGVAIYGYECGRAGCGHFLNSGPNISPYVST-OH; disulfide 2-18, 9-23; N-terminus assumed)	0.62
CC[C@H](C)[C@@H]1NC(=O)[C@H](C)NC(=O)[C@H](C(C)C)NC(=O)CNC(=O)[C@@H]2CSSC[C@@H](C(=O)NCC(=O)N[C@@H](Cc3c[nH]cn3)C(=O)N[C@@H](C)C(=O)N[C@@H](CC(C)C)C(=O)N[C@@H](CC(N)=O)C(=O)N[C@@H](CO)C(=O)NCC(=O)N3CCC[C@H]3C(=O)N[C@@H](CC(N)=O)C(=O)N[C@H](C(=O)N[C@@H](CO)C(=O)N3CCC[C@H]3C(=O)N[C@@H](Cc3ccc(O)cc3)C(=O)N[C@H](C(=O)N[C@@H](CO)C(=O)N[C@H](C(=O)O)[C@@H](C)O)C(C)C)[C@@H](C)CC)NC(=O)CNC(=O)[C@H](Cc3c[nH]c4ccccc34)NC(=O)[C@H](CCCNC(=N)N)NC(=O)CNC(=O)[C@H](CSSC[C@H](NC(=O)[C@@H](N)[C@@H](C)O)C(=O)N3CCC[C@H]3C(=O)N[C@@H](CCC(=O)O)C(=O)NCC(=O)N[C@@H](Cc3c[nH]c4ccccc34)C(=O)N[C@@H](CO)C(=O)N[C@@H](CCC(=O)O)C(=O)N2)NC(=O)[C@H](CCC(=O)O)NC(=O)[C@H](Cc2ccc(O)cc2)NC(=O)CNC(=O)[C@H](Cc2ccc(O)cc2)NC1=O [K92chemFE F26A] (H-TCPEGWSECGVAIYGYECGRWGCGHALNSGPNISPYVST-OH; disulfide 2-18, 9-23; N-terminus assumed)	0.65

Same assay, conditions: multi-cycle kinetics, n = 3 experiments; read-out: mean Koff

Molecule	koff [s⁻¹]
CC[C@H](C)[C@@H]1NC(=O)[C@H](C)NC(=O)[C@H](C(C)C)NC(=O)CNC(=O)[C@@H]2CSSC[C@@H](C(=O)NCC(=O)N[C@@H](Cc3c[nH]cn3)C(=O)N[C@@H](Cc3ccccc3)C(=O)N[C@@H](CC(C)C)C(=O)N[C@@H](CC(N)=O)C(=O)N[C@@H](CO)C(=O)NCC(=O)N3CCC[C@H]3C(=O)N[C@@H](CC(N)=O)C(=O)N[C@H](C(=O)N[C@@H](CO)C(=O)N3CCC[C@H]3C(=O)N[C@@H](Cc3ccc(O)cc3)C(=O)N[C@H](C(=O)N[C@@H](CO)C(=O)N[C@H](C(=O)O)[C@@H](C)O)C(C)C)[C@@H](C)CC)NC(=O)CNC(=O)[C@H](C)NC(=O)[C@H](CCCNC(=N)N)NC(=O)CNC(=O)[C@H](CSSC[C@H](NC(=O)[C@@H](N)[C@@H](C)O)C(=O)N3CCC[C@H]3C(=O)N[C@@H](CCC(=O)O)C(=O)NCC(=O)N[C@@H](Cc3c[nH]c4ccccc34)C(=O)N[C@@H](CO)C(=O)N[C@@H](CCC(=O)O)C(=O)N2)NC(=O)[C@H](CCC(=O)O)NC(=O)[C@H](Cc2ccc(O)cc2)NC(=O)CNC(=O)[C@H](Cc2ccc(O)cc2)NC1=O [K92chemFE W21A] (H-TCPEGWSECGVAIYGYECGRAGCGHFLNSGPNISPYVST-OH; disulfide 2-18, 9-23; N-terminus assumed)	0.00848

Same assay, conditions: multi-cycle kinetics, n = 3 experiments; read-out: mean Kon

Molecule	kon [M⁻¹ s⁻¹]
CC[C@H](C)[C@@H]1NC(=O)[C@H](C)NC(=O)[C@H](C(C)C)NC(=O)CNC(=O)[C@@H]2CSSC[C@@H](C(=O)NCC(=O)N[C@@H](Cc3c[nH]cn3)C(=O)N[C@@H](Cc3ccccc3)C(=O)N[C@@H](CC(C)C)C(=O)N[C@@H](CC(N)=O)C(=O)N[C@@H](CO)C(=O)NCC(=O)N3CCC[C@H]3C(=O)N[C@@H](CC(N)=O)C(=O)N[C@H](C(=O)N[C@@H](CO)C(=O)N3CCC[C@H]3C(=O)N[C@@H](Cc3ccc(O)cc3)C(=O)N[C@H](C(=O)N[C@@H](CO)C(=O)N[C@H](C(=O)O)[C@@H](C)O)C(C)C)[C@@H](C)CC)NC(=O)CNC(=O)[C@H](C)NC(=O)[C@H](CCCNC(=N)N)NC(=O)CNC(=O)[C@H](CSSC[C@H](NC(=O)[C@@H](N)[C@@H](C)O)C(=O)N3CCC[C@H]3C(=O)N[C@@H](CCC(=O)O)C(=O)NCC(=O)N[C@@H](Cc3c[nH]c4ccccc34)C(=O)N[C@@H](CO)C(=O)N[C@@H](CCC(=O)O)C(=O)N2)NC(=O)[C@H](CCC(=O)O)NC(=O)[C@H](Cc2ccc(O)cc2)NC(=O)CNC(=O)[C@H](Cc2ccc(O)cc2)NC1=O [K92chemFE W21A] (H-TCPEGWSECGVAIYGYECGRAGCGHFLNSGPNISPYVST-OH; disulfide 2-18, 9-23; N-terminus assumed)	17400

Same assay, conditions: read-out: mean Koff

Molecule	koff [s⁻¹]
CC[C@H](C)[C@@H]1NC(=O)[C@H](C)NC(=O)[C@H](C(C)C)NC(=O)CNC(=O)[C@@H]2CSSC[C@@H](C(=O)NCC(=O)N[C@@H](Cc3c[nH]cn3)C(=O)N[C@@H](C)C(=O)N[C@@H](CC(C)C)C(=O)N[C@@H](CC(N)=O)C(=O)N[C@@H](CO)C(=O)NCC(=O)N3CCC[C@H]3C(=O)N[C@@H](CC(N)=O)C(=O)N[C@H](C(=O)N[C@@H](CO)C(=O)N3CCC[C@H]3C(=O)N[C@@H](Cc3ccc(O)cc3)C(=O)N[C@H](C(=O)N[C@@H](CO)C(=O)N[C@H](C(=O)O)[C@@H](C)O)C(C)C)[C@@H](C)CC)NC(=O)CNC(=O)[C@H](Cc3c[nH]c4ccccc34)NC(=O)[C@H](CCCNC(=N)N)NC(=O)CNC(=O)[C@H](CSSC[C@H](NC(=O)[C@@H](N)[C@@H](C)O)C(=O)N3CCC[C@H]3C(=O)N[C@@H](CCC(=O)O)C(=O)NCC(=O)N[C@@H](Cc3c[nH]c4ccccc34)C(=O)N[C@@H](CO)C(=O)N[C@@H](CCC(=O)O)C(=O)N2)NC(=O)[C@H](CCC(=O)O)NC(=O)[C@H](Cc2ccc(O)cc2)NC(=O)CNC(=O)[C@H](Cc2ccc(O)cc2)NC1=O [K92chemFE F26A] (H-TCPEGWSECGVAIYGYECGRWGCGHALNSGPNISPYVST-OH; disulfide 2-18, 9-23; N-terminus assumed)	0.00328

Same assay, conditions: read-out: mean Kon

Molecule	kon [M⁻¹ s⁻¹]
CC[C@H](C)[C@@H]1NC(=O)[C@H](C)NC(=O)[C@H](C(C)C)NC(=O)CNC(=O)[C@@H]2CSSC[C@@H](C(=O)NCC(=O)N[C@@H](Cc3c[nH]cn3)C(=O)N[C@@H](C)C(=O)N[C@@H](CC(C)C)C(=O)N[C@@H](CC(N)=O)C(=O)N[C@@H](CO)C(=O)NCC(=O)N3CCC[C@H]3C(=O)N[C@@H](CC(N)=O)C(=O)N[C@H](C(=O)N[C@@H](CO)C(=O)N3CCC[C@H]3C(=O)N[C@@H](Cc3ccc(O)cc3)C(=O)N[C@H](C(=O)N[C@@H](CO)C(=O)N[C@H](C(=O)O)[C@@H](C)O)C(C)C)[C@@H](C)CC)NC(=O)CNC(=O)[C@H](Cc3c[nH]c4ccccc34)NC(=O)[C@H](CCCNC(=N)N)NC(=O)CNC(=O)[C@H](CSSC[C@H](NC(=O)[C@@H](N)[C@@H](C)O)C(=O)N3CCC[C@H]3C(=O)N[C@@H](CCC(=O)O)C(=O)NCC(=O)N[C@@H](Cc3c[nH]c4ccccc34)C(=O)N[C@@H](CO)C(=O)N[C@@H](CCC(=O)O)C(=O)N2)NC(=O)[C@H](CCC(=O)O)NC(=O)[C@H](Cc2ccc(O)cc2)NC(=O)CNC(=O)[C@H](Cc2ccc(O)cc2)NC1=O [K92chemFE F26A] (H-TCPEGWSECGVAIYGYECGRWGCGHALNSGPNISPYVST-OH; disulfide 2-18, 9-23; N-terminus assumed)	184000
